Experimental data reported in the supplement of paper PMC11316812.
± gives the standard deviation of the averaged measurements.

How the values were obtained:
[1] = test system: MCF7; assay: percentage of EdU-negative (G0-arrested) nuclei per well, 72 h; higher = more G0 arrest; settings: reference: sequence is the full UniProt precursor, the tested protein was the secreted form or ectodomain
[2] = test system: hTERT-HMEC; assay: as above; settings: reference: sequence is the full UniProt precursor, the tested protein was the secreted form or ectodomain
[3] = protein concentration 0.0225 µM
[4] = protein concentration 0.0354286 µM
[5] = protein concentration 0.354286 µM
[6] = protein concentration 0.02179 µM
[7] = protein concentration 0.2179 µM
[8] = protein concentration 0.02325 µM
[9] = protein concentration 0.2325 µM
[10] = protein concentration 0.0135 µM
[11] = protein concentration 0.0193425 µM
[12] = protein concentration 0.193425 µM
[13] = protein concentration 0.02085 µM
[14] = protein concentration 0.2085 µM
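Also: secreted proteins added to cultured cells, EdU pulse at the end, nuclei found by Hoechst imaging, EdU status from nuclear versus surrounding ring intensity ratio, PBS as neutral control.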

## MDGAMGPRGLLLCMYLVSLLILQAMPALGSATGRSKSSEKRQAVDTAVDGVFIRSLKVNCKVTSRFAHYVVTSQVVNTANEAREVAFDLEIPKTAFISDFAVTADGNAFIGDIKDKVTAWKQYRKAAISGENAGLVRASGRTMEQFTIHLTVNPQSKVTFQLTYEEVLKRNHMQYEIVIKVKPKQLVHHFEIDVDIFEPQGISKLDAQASFLPKELAAQTIKKSFSGKKGHVLFRPTVSQQQSCPTCSTSLLNGHFKVTYDVSRDKICDLLVANNHFAHFFAPQNLTNMNKNVVFVIDISGSMRGQKVKQTKEALLKILGDMQPGDYFDLVLFGTRVQSWKGSLVQASEANLQAAQDFVRGFSLDEATNLNGGLLRGIEILNQVQESLPELSNHASILIMLTDGDPTEGVTDRSQILKNVRNAIRGRFPLYNLGFGHNVDFNFLEVMSMENNGRAQRIYEDHDATQQLQGFYSQVAKPLLVDVDLQYPQDAVLALTQNHHKQYYEGSEIVVAGRIADNKQSSFKADVQAHGEGQEFSITCLVDEEEMKKLLRERGHMLENHVERLWAYLTIQELLAKRMKVDREERANLSSQALQMSLDYGFVTPLTSMSIRGMADQDGLKPTIDKPSEDSPPLEMLGPRRTFVLSALQPSPTHSSSNTQRLPDRVTGVDTDPHFIIHVPQKEDTLCFNINEEPGVILSLVQDPNTGFSVNGQLIGNKARSPGQHDGTYFGRLGIANPATDFQLEVTPQNITLNPGFGGPVFSWRDQAVLRQDGVVVTINKKRNLVVSVDDGGTFEVVLHRVWKGSSVHQDFLGFYVLDSHRMSARTHGLLGQFFHPIGFEVSDIHPGSDPTKPDATMVVRNRRLTVTRGLQKDYSKDPWHGAEVSCWFIHNNGAGLIDGAYTDYIVPDIF
[1]; [3]
  percentage of EdU-negative: 26.48 ± 0.18%
[1]; protein concentration 0.225 µM
  percentage of EdU-negative: 26 ± 0.27%
[2]; [3]
  percentage of EdU-negative: 5.89 ± 0.64%
[2]; protein concentration 0.225 µM
  percentage of EdU-negative: 6.12 ± 0.16%

## MDGLPGRALGAACLLLLAAGWLGPEAWGSPTPPPTPAAPPPPPPPGSPGGSQDTCTSCGGFRRPEELGRVDGDFLEAVKRHILSRLQMRGRPNITHAVPKAAMVTALRKLHAGKVREDGRVEIPHLDGHASPGADGQERVSEIISFAETDGLASSRVRLYFFISNEGNQNLFVVQASLWLYLKLLPYVLEKGSRRKVRVKVYFQEQGHGDRWNMVEKRVDLKRSGWHTFPLTEAIQALFERGERRLNLDVQCDSCQELAVVPVFVDPGEESHRPFVVVQARLGDSRHRIRKRGLECDGRTNLCCRQQFFIDFRLIGWNDWIIAPTGYYGNYCEGSCPAYLAGVPGSASSFHTAVVNQYRMRGLNPGTVNSCCIPTKLSTMSMLYFDDEYNIVKRDVPNMIVEECGCA
[1]; [4]
  percentage of EdU-negative: 24.4 ± 0.62%
[1]; [5]
  percentage of EdU-negative: 29.05 ± 0.099%
[2]; [4]
  percentage of EdU-negative: 5.47 ± 0.17%
[2]; [5]
  percentage of EdU-negative: 8.73 ± 0.18%

## MDGWRRMPRWGLLLLLWGSCTFGLPTDTTTFKRIFLKRMPSIRESLKERGVDMARLGPEWSQPMKRLTLGNTTSSVILTNYMDTQYYGEIGIGTPPQTFKVVFDTGSSNVWVPSSKCSRLYTACVYHKLFDASDSSSYKHNGTELTLRYSTGTVSGFLSQDIITVGGITVTQMFGEVTEMPALPFMLAEFDGVVGMGFIEQAIGRVTPIFDNIISQGVLKEDVFSFYYNRDSENSQSLGGQIVLGGSDPQHYEGNFHYINLIKTGVWQIQMKGVSVGSSTLLCEDGCLALVDTGASYISGSTSSIEKLMEALGAKKRLFDYVVKCNEGPTLPDISFHLGGKEYTLTSADYVFQESYSSKKLCTLAIHAMDIPPPTGPTWALGATFIRKFYTEFDRRNNRIGFALAR
[1]; protein concentration 0.007 µM
  percentage of EdU-negative: 27.1 ± 1.6%
[1]; [6]
  percentage of EdU-negative: 24.9 ± 1.8%
[1]; protein concentration 0.07 µM
  percentage of EdU-negative: 28.5 ± 1.1%
[1]; [7]
  percentage of EdU-negative: 23.8 ± 2.5%
[2]; protein concentration 0.007 µM
  percentage of EdU-negative: 4.96 ± 0.18%
[2]; [6]
  percentage of EdU-negative: 5 ± 0.54%
[2]; protein concentration 0.07 µM
  percentage of EdU-negative: 6.37 ± 0.25%
[2]; [7]
  percentage of EdU-negative: 5.45 ± 0.35%

## MDLLQFLAFLFVLLLSGMGATGTLRTSLDPSLEIYKKMFEVKRREQLLALKNLAQLNDIHQQYKILDVMLKGLFKVLEDSRTVLTAADVLPDGPFPQDEKLKDAFSHVVENTAFFGDVVLRFPRIVHYYFDHNSNWNLLIRWGISFCNQTGVFNQGPHSPILSLMAQELGISEKDSNFQNPFKIDRTEFIPSTDPFQKALREEEKRRKKEEKRKEIRKGPRISRSQSEL [Q9H6E4]
[1]; [8]
  percentage of EdU-negative: 27.1 ± 0.79%
[1]; [9]
  percentage of EdU-negative: 26.7 ± 0.95%
[2]; [8]
  percentage of EdU-negative: 5.552 ± 0.014%
[2]; [9]
  percentage of EdU-negative: 6.34 ± 0.88%

## MDLRDFYLLAALIACLRLDSAIAQELIYTIREELPENVPIGNIPKDLNISHINAATGTSASLVYRLVSKAGDAPLVKVSSSTGEIFTTSNRIDREKLCAGASYAEENECFFELEVVILPNDFFRLIKIKIIVKDTNDNAPMFPSPVINISIPENTLINSRFPIPSATDPDTGFNGVQHYELLNGQSVFGLDIVETPEGEKWPQLIVQQNLDREQKDTYVMKIKVEDGGTPQKSSTAILQVTVSDVNDNRPVFKEGQVEVHIPENAPVGTSVIQLHATDADIGSNAEIRYIFGAQVAPATKRLFALNNTTGLITVQRSLDREETAIHKVTVLASDGSSTPARATVTINVTDVNDNPPNIDLRYIISPINGTVYLSEKDPVNTKIALITVSDKDTDVNGKVICFIEREVPFHLKAVYDNQYLLETSSLLDYEGTKEFSFKIVASDSGKPSLNQTALVRVKLEDENDNPPIFNQPVIELSVSENNRRGLYLTTISATDEDSGKNADIVYQLGPNASFFDLDRKTGVLTASRVFDREEQERFIFTVTARDNGTPPLQSQAAVIVTVLDENDNSPKFTHNHFQFFVSENLPKYSTVGVITVTDADAGENKAVTLSILNDNDNFVLDPYSGVIKSNVSFDREQQSSYTFDVKATDGGQPPRSSTAKVTINVMDVNDNSPVVISPPSNTSFKLVPLSAIPGSVVAEVFAVDVDTGMNAELKYTIVSGNNKGLFRIDPVTGNITLEEKPAPTDVGLHRLVVNISDLGYPKSLHTLVLVFLYVNDTAGNASYIYDLIRRTMETPLDRNIGDSSQPYQNEDYLTIMIAIIAGAMVVIVVIFVTVLVRCRHASRFKAAQRSKQGAEWMSPNQENKQNKKKKRKKRKSPKSSLLNFVTIEESKPDDAVHEPINGTISLPAELEEQSIGRFDWGPAPPTTFKPNSPDLAKHYKSASPQPAFHLKPDTPVSVKKHHVIQELPLDNTFVGGCDTLSKRSSTSSDHFSASECSSQGGFKTKGPLHTRQCNSHSKSDNIPVTPQKCPSSTGFHIQENEESHYESQRRVTFHLPDGSQESCSDSGLGDHEPVGSGTLISHPLPLVQPQDEFYDQASPDKRTEADGNSDPNSDGPLGPRGLAEATEMCTQECLVLGHSDNCWMPPGLGPYQHPKSPLSTFAPQKEWVKKDKLVNGHTLTRAWKEDSNRNQFNDRKQYGSNEGHFNNGSHMTDIPLANLKSYKQAGGATESPKEHQL [Q9HC56]
[1]; [3]
  percentage of EdU-negative: 25.9 ± 2.1%
[1]; protein concentration 0.225 µM
  percentage of EdU-negative: 32.9 ± 2.9%
[2]; [3]
  percentage of EdU-negative: 4.64 ± 0.43%
[2]; protein concentration 0.225 µM
  percentage of EdU-negative: 13.4 ± 3.9%

## MDLRQFLMCLSLCTAFALSKPTEKKDRVHHEPQLSDKVHNDAQSFDYDHDAFLGAEEAKTFDQLTPEESKERLGKIVSKIDGDKDGFVTVDELKDWIKFAQKRWIYEDVERQWKGHDLNEDGLVSWEEYKNATYGYVLDDPDPDDGFNYKQMMVRDERRFKMADKDGDLIATKEEFTAFLHPEEYDYMKDIVVQETMEDIDKNADGFIDLEEYIGDMYSHDGNTDEPEWVKTEREQFVEFRDKNRDGKMDKEETKDWILPSDYDHAEAEARHLVYESDQNKDGKLTKEEIVDKYDLFVGSQATDFGEALVRHDEF
[1]; [10]
  percentage of EdU-negative: 22.72 ± 0.078%
[1]; protein concentration 0.135 µM
  percentage of EdU-negative: 23.6 ± 3.3%
[2]; [10]
  percentage of EdU-negative: 5.58 ± 1.3%
[2]; protein concentration 0.135 µM
  percentage of EdU-negative: 7.65 ± 0.27%

## MDLSAAAALCLWLLSACRPRDGLEAAAVLRAAGAGPVRSPGGGGGGGGGGRTLAQAAGAAAVPAAAVPRARAARRAAGSGFRNGSVVPHHFMMSLYRSLAGRAPAGAAAVSASGHGRADTITGFTDQATQDESAAETGQSFLFDVSSLNDADEVVGAELRVLRRGSPESGPGSWTSPPLLLLSTCPGAARAPRLLYSRAAEPLVGQRWEAFDVADAMRRHRREPRPPRAFCLLLRAVAGPVPSPLALRRLGFGWPGGGGSAAEERAVLVVSSRTQRKESLFREIRAQARALGAALASEPLPDPGTGTASPRAVIGGRRRRRTALAGTRTAQGSGGGAGRGHGRRGRSRCSRKPLHVDFKELGWDDWIIAPLDYEAYHCEGLCDFPLRSHLEPTNHAIIQTLLNSMAPDAAPASCCVPARLSPISILYIDAANNVVYKQYEDMVVEACGCR [Q7Z4P5]
[1]; [11]
  percentage of EdU-negative: 26.75 ± 0.031%
[1]; [12]
  percentage of EdU-negative: 28.9 ± 2.2%
[2]; [11]
  percentage of EdU-negative: 5.309 ± 0.0057%
[2]; [12]
  percentage of EdU-negative: 5.34 ± 1.2%

## MDLSLLWVLLPLVTMAWGQYGDYGYPYQQYHDYSDDGWVNLNRQGFSYQCPQGQVIVAVRSIFSKKEGSDRQWNYACMPTPQSLGEPTECWWEEINRAGMEWYQTCSNNGLVAGFQSRYFESVLDREWQFYCCRYSKRCPYSCWLTTEYPGHYGEEMDMISYNYDYYIRGATTTFSAVERDRQWKFIMCRMTEYDCEFANV
[1]; [3]
  percentage of EdU-negative: 25.1 ± 0.98%
[1]; protein concentration 0.225 µM
  percentage of EdU-negative: 26.2 ± 0.3%
[2]; [3]
  percentage of EdU-negative: 5.38 ± 0.62%
[2]; protein concentration 0.225 µM
  percentage of EdU-negative: 4.92 ± 0.97%

## MDLSRPRWSLWRRVFLMASLLACGICQASGQIFITQTLGIKGYRTVVALDKVPEDVQEYSWYWGANDSAGNMIISHKPPSAQQPGPMYTGRERVNREGSLLIRPTALNDTGNYTVRVVAGNETQRATGWLEVLELGSNLGISVNASSLVENMDSVAADCLTNVTNITWYVNDVPTSSSDRMTISPDGKTLVILRVSRYDRTIQCMIESFPEIFQRSERISLTVAYGPDYVLLRSNPDDFNGIVTAEIGSQVEMECICYSFLDLKYHWIHNGSLLNFSDAKMNLSSLAWEQMGRYRCTVENPVTQLIMYMDVRIQAPHEDLTCCPQRFLHLRIHGDVPHHADSAGWRLHLWSPDPCSDQPLLNQDKSGSMSVHPRPEDKTRRASR [A8MTB9]
[1]; [3]
  percentage of EdU-negative: 28.6 ± 0.05%
[1]; protein concentration 0.225 µM
  percentage of EdU-negative: 27.4 ± 0.32%
[2]; [3]
  percentage of EdU-negative: 4.89 ± 0.18%
[2]; protein concentration 0.225 µM
  percentage of EdU-negative: 4.46 ± 0.032%

## MDLVLKRCLLHLAVIGALLAVGATKVPRNQDWLGVSRQLRTKAWNRQLYPEWTEAQRLDCWRGGQVSLKVSNDGPTLIGANASFSIALNFPGSQKVLPDGQVIWVNNTIINGSQVWGGQPVYPQETDDACIFPDGGPCPSGSWSQKRSFVYVWKTWGQYWQVLGGPVSGLSIGTGRAMLGTHTMEVTVYHRRGSRSYVPLAHSSSAFTITDQVPFSVSVSQLRALDGGNKHFLRNQPLTFALQLHDPSGYLAEADLSYTWDFGDSSGTLISRALVVTHTYLEPGPVTAQVVLQAAIPLTSCGSSPVPGTTDGHRPTAEAPNTTAGQVPTTEVVGTTPGQAPTAEPSGTTSVQVPTTEVISTAPVQMPTAESTGMTPEKVPVSEVMGTTLAEMSTPEATGMTPAEVSIVVLSGTTAAQVTTTEWVETTARELPIPEPEGPDASSIMSTESITGSLGPLLDGTATLRLVKRQVPLDCVLYRYGSFSVTLDIVQGIESAEILQAVPSGEGDAFELTVSCQGGLPKEACMEISSPGCQPPAQRLCQPVLPSPACQLVLHQILKGGSGTYCLNVSLADTNSLAVVSTQLIMPGQEAGLGQVPLIVGILLVLMAVVLASLIYRRRLMKQDFSVPQLPHSSSHWLRLPRIFCSCPIGENSPLLSGQQV
[1]; [13]
  percentage of EdU-negative: 25.3 ± 1.8%
[1]; [14]
  percentage of EdU-negative: 25.4 ± 2.4%
[2]; [13]
  percentage of EdU-negative: 4.37 ± 0.18%
[2]; [14]
  percentage of EdU-negative: 5.18 ± 0.52%
